# Results taken from patent US20220089574A1, “CXCR4 gamete molecular structure and method thereof” (priority 2020, published 2022).
# Square brackets hold non-standard residues; d marks the D form. Side chains are listed from the residue outwards. Peptide text beside a SMILES is read from it. * marks the point of attachment. DOTA = O=C(O)CN1CCN(CC(=O)O)CCN(CC(=O)*)CCN(CC(=O)O)CC1; dTyr(3-I) = N[C@H](Cc1ccc(O)c(I)c1)C(=O)O; 2Nal = N[C@@H](Cc1ccc2ccccc2c1)C(=O)O; dNMeOrn = CN[C@H](CCCN)C(=O)O; 4Amb = NCc1ccc(C(=O)O)cc1
# Assay: in vivo
# Parameters: species or system SCID mice
# Conditions: SCID, mouse, iv, total radioactivity, accumulation in the tumor
# Description: Embodiment 3: Radionuclide Labeled D-L2(-B)-L1-A is Used for Animal In Vivo imaging PC-3 human […] adenocarcinoma cells were inoculated into the forelimbs of SCID mice at 4×10^6, and about 3 weeks after inoculation, the radionuclide In-111 labeled D-L2(-B)-L1-A was used to adjust with injection water, and 469-527 μCi of radioactive drugs were intravenously injected into the tail vein, and nano SPECT/CT imaging was performed after administration at 1, 4, 24, 48, 72, and 96 hours, respectively. Nano SPECT/CT was used to track the distribution of radiopharmaceuticals in the animal body at each of the time points after administration, and analysis software was used to enter the image into the semi-definite image to obtain the SPECT value from the test substance with known activity at each of the time points. The linear ratio formula was derived between the SPECT calculated value and the actual activity, and the SPECT calculated value was then used at each target organ circled area to obtain the live/volume of each target organ with interpolation or extrapolation linear formula.
# For performing the calculation we assume that every 1 mL of injection dosage is 1 g, and the circled area in the mouse body is 1 g per 1 cm^3. Furthermore, since the activity volume of the administered injection and the weight of the experimental mouse are known, each gram of In-111-D-L2(-B)-L1-A's biological distribution ratio (% ID/g) in each organ can be deduced, and will focus on organ tumor, liver, kidney and muscle into the distribution comparison and obtain ratio, as shown in FIG. 10.
SMILES,tissue uptake at 1 h,tissue uptake at 24 h,tissue uptake at 4 h,tissue uptake at 48 h,tissue uptake at 72 h,tissue uptake at 96 h
"Cc1ccc(CCCC(=O)NCCCC[C@H](NC(=O)CN2CCN(CC(=O)O)CCN(CC(=O)O)CCN(CC(=O)O)CC2)C(=O)NCc2ccc(C(=O)NCCC[C@@H]3C(=O)N[C@@H](CCCNC(=N)N)C(=O)N[C@@H](Cc4ccc5ccccc5c4)C(=O)NCC(=O)N[C@H](Cc4ccc(O)c(I)c4)C(=O)N3C)cc2)cc1 (111In complex, metal not drawn) [I-01(-I-01)-I-01]",5.47 %ID/g,> 1 %ID/g,–,–,–,–
"Cc1ccc(CCCC(=O)NCCCC[C@H](NC(=O)CN2CCN(CC(=O)O)CCN(CC(=O)O)CCN(CC(=O)O)CC2)C(=O)NCCCCCC(=O)NCCC[C@@H]2C(=O)N[C@@H](CCCNC(=N)N)C(=O)N[C@@H](Cc3ccc4ccccc4c3)C(=O)NCC(=O)N[C@H](Cc3ccc(O)c(I)c3)C(=O)N2C)cc1 (111In complex, metal not drawn) [I-01(-I-01)-I-17]",7.87 %ID/g,> 1 %ID/g,–,–,–,–
"CN1C(=O)[C@@H](Cc2ccc(O)c(I)c2)NC(=O)CNC(=O)[C@H](Cc2ccc3ccccc3c2)NC(=O)[C@H](CCCNC(=N)N)NC(=O)[C@H]1CCCNC(=O)c1ccc(CNC(=O)CN2CCN(CC(=O)O)CCN(CC(=O)O)CCN(CC(=O)O)CC2)cc1 [In-111-pentixather, metal not drawn] (cyclo([dTyr(3-I)][dNMeOrn]([4Amb-DOTA])R[2Nal]G))",3.24 %ID/g,–,1.54 %ID/g,0.5 %ID/g,0.24 %ID/g,0.25 %ID/g
